Results: patent US20250361299A1 (published 2025)
Values belong to the binder of their own block, whether it stands above or below them.

Assays:
[1] = biological target: T1, Recombinant human EGFR (human, UniProt P00533 25-645); experiment: ELISA
[2] = biological target: T2, Human CD3 protein (human, UniProt P07766 23-126); experiment: ELISA
T2 chain: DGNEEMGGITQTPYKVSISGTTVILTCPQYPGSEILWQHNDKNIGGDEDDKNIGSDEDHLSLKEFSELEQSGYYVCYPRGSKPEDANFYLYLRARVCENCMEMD

[3] = biological target: T1, Recombinant human EGFR; experiment: ELISA; without uPA
[4] = biological target: T2, Human CD3 protein; experiment: ELISA; without uPA
[5] = biological target: T1, Recombinant human EGFR; experiment: ELISA; remark: listed apart in the source
[6] = biological target: T2, Human CD3 protein; experiment: ELISA
[7] = biological target: T1, Recombinant human EGFR; experiment: ELISA; remark: listed apart in the source
[8] = biological target: T2, Human CD3 protein; experiment: ELISA

- EC50 [1]: 0.255 mg/L
- EC50 [2]: 7.43 mg/L
B1: 1.4.3M-Pa-Noncleavable (antibody)
chain 1: QDGNEEMGGIGGGSQDGNEEMGGGGGSGGGSGGSEVQLVESGGGLVQPGGSLRLSCAASGFTFNTYAMNWVRQAPGKGLEWVARIRSKYNNYATYYADSVKGRFTISRDDSKNTLYLQMNSLRAEDTAVYYCARHGNFGSSYVSYFAYWGQGTTVTVSSGGGSSGGGGSGGGGSQVQLQESGPGLVKPSETLSLTCTVSGGSVSSGDYYWTWIRQSPGKGLEWIGHIYYSGNTNYNPSLKSRLTISIDTSKTQFSLKLSSVTAADTAIYYCVRDRVTGAFDIWGQGTMVTVSSASTKGPSVFPLAPSSKSTSGGTAALGCLVKDYFPEPVTVSWNSGALTSGVHTFPAVLQSSGLYSLSSVVTVPSSSLGTQTYICNVNHKPSNTKVDKKVEPKSCPPCPAPEAAGGPSVFLFPPKPKDTLMISRTPEVTCVVVDVSHEDPEVKFNWYVDGVEVHNAKTKPREEQYNSTYRVVSVLTVLHQDWLNGKEYKCKVSNKALPAPIEKTISKAKGQPREPQVYTLPPSRDELTKNQVSLLCLVKGFYPSDIAVEWESNGQPENNYKTTPPVLDSDGSFFLHSKLTVDKSRWQQGNVFSCSVMHEALHNHYTQKSLSLSPGK
chain 2: not shown

- EC50 [3]: 0.0154 mg/L
- EC50 [4]: 47.2 mg/L
B2: 1.6.1M-Pa proBiTE (bispecific antibody)
heavy: QDGNEEMGGGSQDGNEEMGGIGGGSGGGGSGLSGRSDNHGGGGSEVQLVESGGGLVQPGGSLRLSCAASGFTFNTYAMNWVRQAPGKGLEWVARIRSKYNNYATYYADSVKGRFTISRDDSKNTLYLQMNSLRAEDTAVYYCARHGNFGSSYVSYFAYWGQGTTVTVSSASTKGPSVFPLAPSSKSTSGGTAALGCLVKDYFPEPVTVSWNSGALTSGVHTFPAVLQSSGLYSLSSVVTVPSSSLGTQTYICNVNHKPSNTKVDKKVEPKSCPPCPAPEAAGAPSVFLFPPKPKDTLMISRTPEVTCVVVDVSHEDPEVKFNWYVDGVEVHNAKTKPREEQYNSTYRVVSVLTVLHQDWLNGKEYKCKVSNKALPAPIEKTISKAKGQPREPQVYTLPPSRDELTKNQVSLLCLVKGFYPSDIAVEWESNGQPENNYKTTPPVLDSDGSFFLHSKLTVDKSRWQQGNVFSCSVMHEALHNHYTQKSLSLSPGK
light: QVQLQESGPGLVKPSETLSLTCTVSGGSVSSGDYYWTWIRQSPGKGLEWIGHIYYSGNTNYNPSLKSRLTISIDTSKTQFSLKLSSVTAADTAIYYCVRDRVTGAFDIWGQGTMVTVSSGGGGSGGGGSGGGGSGGGGSDIQMTQSPSSLSASVGDRVTITCQASQDISNYLNWYQQKPGKAPKLLIYDASNLETGVPSRFSGSGSGTDFTFTISSLQPEDIATYFCQHFDHLPLAFGGGTKVEIKGGGGSGGGGSGGGGSGGGGSEIVVTQSPATLSVSPGERATLSCRSSTGAVTTSNYANWVQQKPGQAPRGLIGGANKRAPGVPARFSGSLSGDEATLTISSLQSEDFAVYYCALWYSNLWVFGQGTKLEIKRTVAAPSVFIFPPSDEQLKSGTASVVCLLNNFYPREAKVQWKVDNALQSGNSQESVTEQDSKDSTYSLSSTLTLSKADYEKHKVYACEVTHQGLSSPVTKSFNRGECPPCPAPEAAGAPSVFLFPPKPKDTLMISRTPEVTCVVVDVSHEDPEVKFNWYVDGVEVHNAKTKPREEQYNSTYRVVSVLTVLHQDWLNGKEYKCKVSNKALPAPIEKTISKAKGQPREPQVYTLPPSRDELTKNQVSLLCLVKGFYPSDIAVEWESNGQPENNYKTTPPVLDSDGSFFLHSKLTVDKSRWQQGNVFSCSVMHEALHNHYTQKSLSLSPGK

- EC50 [5]: 0.0264 mg/L
- EC50 [6]: 0.613 mg/L
B3: 1.6.1M-Pa-CTR (antibody)
chain 1: EVQLVESGGGLVQPGGSLRLSCAASGFTFNTYAMNWVRQAPGKGLEWVARIRSKYNNYATYYADSVKGRFTISRDDSKNTLYLQMNSLRAEDTAVYYCARHGNFGSSYVSYFAYWGQGTTVTVSSASTKGPSVFPLAPSSKSTSGGTAALGCLVKDYFPEPVTVSWNSGALTSGVHTFPAVLQSSGLYSLSSVVTVPSSSLGTQTYICNVNHKPSNTKVDKKVEPKSCPPCPAPEAAGAPSVFLFPPKPKDTLMISRTPEVTCVVVDVSHEDPEVKFNWYVDGVEVHNAKTKPREEQYNSTYRVVSVLTVLHQDWLNGKEYKCKVSNKALPAPIEKTISKAKGQPREPQVYTLPPSRDELTKNQVSLLCLVKGFYPSDIAVEWESNGQPENNYKTTPPVLDSDGSFFLHSKLTVDKSRWQQGNVFSCSVMHEALHNHYTQKSLSLSPGK
chain 2: QVQLQESGPGLVKPSETLSLTCTVSGGSVSSGDYYWTWIRQSPGKGLEWIGHIYYSGNTNYNPSLKSRLTISIDTSKTQFSLKLSSVTAADTAIYYCVRDRVTGAFDIWGQGTMVTVSSGGGGSGGGGSGGGGSGGGGSDIQMTQSPSSLSASVGDRVTITCQASQDISNYLNWYQQKPGKAPKLLIYDASNLETGVPSRFSGSGSGTDFTFTISSLQPEDIATYFCQHFDHLPLAFGGGTKVEIKGGGGSGGGGSGGGGSGGGGSEIVVTQSPATLSVSPGERATLSCRSSTGAVTTSNYANWVQQKPGQAPRGLIGGANKRAPGVPARFSGSLSGDEATLTISSLQSEDFAVYYCALWYSNLWVFGQGTKLEIKRTVAAPSVFIFPPSDEQLKSGTASVVCLLNNFYPREAKVQWKVDNALQSGNSQESVTEQDSKDSTYSLSSTLTLSKADYEKHKVYACEVTHQGLSSPVTKSFNRGECPPCPAPEAAGAPSVFLFPPKPKDTLMISRTPEVTCVVVDVSHEDPEVKFNWYVDGVEVHNAKTKPREEQYNSTYRVVSVLTVLHQDWLNGKEYKCKVSNKALPAPIEKTISKAKGQPREPQVYTLPPSRDELTKNQVSLLCLVKGFYPSDIAVEWESNGQPENNYKTTPPVLDSDGSFFLHSKLTVDKSRWQQGNVFSCSVMHEALHNHYTQKSLSLSPGK

- EC50 [7]: 0.0106 mg/L
- EC50 [8]: 0.462 mg/L
B4: 1.6.1M-Pa-Unmask iBiTE (bispecific antibody)
heavy: EVQLVESGGGLVQPGGSLRLSCAASGFTFNTYAMNWVRQAPGKGLEWVARIRSKYNNYATYYADSVKGRFTISRDDSKNTLYLQMNSLRAEDTAVYYCARHGNFGSSYVSYFAYWGQGTTVTVSSASTKGPSVFPLAPSSKSTSGGTAALGCLVKDYFPEPVTVSWNSGALTSGVHTFPAVLQSSGLYSLSSVVTVPSSSLGTQTYICNVNHKPSNTKVDKKVEPKSCPPCPAPEAAGAPSVFLFPPKPKDTLMISRTPEVTCVVVDVSHEDPEVKFNWYVDGVEVHNAKTKPREEQYNSTYRVVSVLTVLHQDWLNGKEYKCKVSNKALPAPIEKTISKAKGQPREPQVYTLPPSRDELTKNQVSLLCLVKGFYPSDIAVEWESNGQPENNYKTTPPVLDSDGSFFLHSKLTVDKSRWQQGNVFSCSVMHEALHNHYTQKSLSLSPGK
light: QVQLQESGPGLVKPSETLSLTCTVSGGSVSSGDYYWTWIRQSPGKGLEWIGHIYYSGNTNYNPSLKSRLTISIDTSKTQFSLKLSSVTAADTAIYYCVRDRVTGAFDIWGQGTMVTVSSGGGGSGGGGSGGGGSGGGGSDIQMTQSPSSLSASVGDRVTITCQASQDISNYLNWYQQKPGKAPKLLIYDASNLETGVPSRFSGSGSGTDFTFTISSLQPEDIATYFCQHFDHLPLAFGGGTKVEIKGGGGSGGGGSGGGGSGGGGSEIVVTQSPATLSVSPGERATLSCRSSTGAVTTSNYANWVQQKPGQAPRGLIGGANKRAPGVPARFSGSLSGDEATLTISSLQSEDFAVYYCALWYSNLWVFGQGTKLEIKRTVAAPSVFIFPPSDEQLKSGTASVVCLLNNFYPREAKVQWKVDNALQSGNSQESVTEQDSKDSTYSLSSTLTLSKADYEKHKVYACEVTHQGLSSPVTKSFNRGECPPCPAPEAAGAPSVFLFPPKPKDTLMISRTPEVTCVVVDVSHEDPEVKFNWYVDGVEVHNAKTKPREEQYNSTYRVVSVLTVLHQDWLNGKEYKCKVSNKALPAPIEKTISKAKGQPREPQVYTLPPSRDELTKNQVSLLCLVKGFYPSDIAVEWESNGQPENNYKTTPPVLDSDGSFFLHSKLTVDKSRWQQGNVFSCSVMHEALHNHYTQKSLSLSPGK

- EC50 [7]: 0.027 mg/L
- EC50 [8]: ~99500 mg/L
B5: 1.6.1M-Pa-Noncleavable BiTE (bispecific antibody)
heavy: QDGNEEMGGGSQDGNEEMGGIGGGSGGGGSGLSGAGNHGGGGSEVQLVESGGGLVQPGGSLRLSCAASGFTFNTYAMNWVRQAPGKGLEWVARIRSKYNNYATYYADSVKGRFTISRDDSKNTLYLQMNSLRAEDTAVYYCARHGNFGSSYVSYFAYWGQGTTVTVSSASTKGPSVFPLAPSSKSTSGGTAALGCLVKDYFPEPVTVSWNSGALTSGVHTFPAVLQSSGLYSLSSVVTVPSSSLGTQTYICNVNHKPSNTKVDKKVEPKSCPPCPAPEAAGAPSVFLFPPKPKDTLMISRTPEVTCVVVDVSHEDPEVKFNWYVDGVEVHNAKTKPREEQYNSTYRVVSVLTVLHQDWLNGKEYKCKVSNKALPAPIEKTISKAKGQPREPQVYTLPPSRDELTKNQVSLLCLVKGFYPSDIAVEWESNGQPENNYKTTPPVLDSDGSFFLHSKLTVDKSRWQQGNVFSCSVMHEALHNHYTQKSLSLSPGK
light: QVQLQESGPGLVKPSETLSLTCTVSGGSVSSGDYYWTWIRQSPGKGLEWIGHIYYSGNTNYNPSLKSRLTISIDTSKTQFSLKLSSVTAADTAIYYCVRDRVTGAFDIWGQGTMVTVSSGGGGSGGGGSGGGGSGGGGSDIQMTQSPSSLSASVGDRVTITCQASQDISNYLNWYQQKPGKAPKLLIYDASNLETGVPSRFSGSGSGTDFTFTISSLQPEDIATYFCQHFDHLPLAFGGGTKVEIKGGGGSGGGGSGGGGSGGGGSEIVVTQSPATLSVSPGERATLSCRSSTGAVTTSNYANWVQQKPGQAPRGLIGGANKRAPGVPARFSGSLSGDEATLTISSLQSEDFAVYYCALWYSNLWVFGQGTKLEIKRTVAAPSVFIFPPSDEQLKSGTASVVCLLNNFYPREAKVQWKVDNALQSGNSQESVTEQDSKDSTYSLSSTLTLSKADYEKHKVYACEVTHQGLSSPVTKSFNRGECPPCPAPEAAGAPSVFLFPPKPKDTLMISRTPEVTCVVVDVSHEDPEVKFNWYVDGVEVHNAKTKPREEQYNSTYRVVSVLTVLHQDWLNGKEYKCKVSNKALPAPIEKTISKAKGQPREPQVYTLPPSRDELTKNQVSLLCLVKGFYPSDIAVEWESNGQPENNYKTTPPVLDSDGSFFLHSKLTVDKSRWQQGNVFSCSVMHEALHNHYTQKSLSLSPGK
